In patent publication US20250326865A1, “C-MET PROTEIN-BINDING PEPTIDE COMPLEX” (PeptiDream Inc., priority 2021, published 2025):
Starred links: 1 amine or outer side, 2 acyl side, 3 side chain; linkers in the order of their positions; H or OH if unused. Positions of bridges follow the written chain, without caps; N, C: chain ends. Non-standard residues stand in square brackets, D forms with d. Chains are numbered I, II in the order given. No end group written: not given here. CO(CH2)2(OCH2CH2)17CO = O=C(CCOCCOCCOCCOCCOCCOCCOCCOCCOCCOCCOCCOCCOCCOCCOCCOCCOCCC(=O)[*:2])[*:1]; CO(CH2CH2O)9CH2CH2CO = O=C(CCOCCOCCOCCOCCOCCOCCOCCOCCOCCC(=O)[*:2])[*:1]; PEG12 = NCCOCCOCCOCCOCCOCCOCCOCCOCCOCCOCCOCCOCCC(=O)O; NMeF = CN[C@@H](Cc1ccccc1)C(=O)O; Ahp(2) = CCCCC[C@H](N)C(=O)O; hLys = NCCCCC[C@H](N)C(=O)O; NMeC = CN[C@@H](CS)C(=O)O

Molecular target: human c-Met protein (human, UniProt P08581 25-1390)
Test: cell-based or functional assay

Chain of human c-Met protein (P08581 25-1390): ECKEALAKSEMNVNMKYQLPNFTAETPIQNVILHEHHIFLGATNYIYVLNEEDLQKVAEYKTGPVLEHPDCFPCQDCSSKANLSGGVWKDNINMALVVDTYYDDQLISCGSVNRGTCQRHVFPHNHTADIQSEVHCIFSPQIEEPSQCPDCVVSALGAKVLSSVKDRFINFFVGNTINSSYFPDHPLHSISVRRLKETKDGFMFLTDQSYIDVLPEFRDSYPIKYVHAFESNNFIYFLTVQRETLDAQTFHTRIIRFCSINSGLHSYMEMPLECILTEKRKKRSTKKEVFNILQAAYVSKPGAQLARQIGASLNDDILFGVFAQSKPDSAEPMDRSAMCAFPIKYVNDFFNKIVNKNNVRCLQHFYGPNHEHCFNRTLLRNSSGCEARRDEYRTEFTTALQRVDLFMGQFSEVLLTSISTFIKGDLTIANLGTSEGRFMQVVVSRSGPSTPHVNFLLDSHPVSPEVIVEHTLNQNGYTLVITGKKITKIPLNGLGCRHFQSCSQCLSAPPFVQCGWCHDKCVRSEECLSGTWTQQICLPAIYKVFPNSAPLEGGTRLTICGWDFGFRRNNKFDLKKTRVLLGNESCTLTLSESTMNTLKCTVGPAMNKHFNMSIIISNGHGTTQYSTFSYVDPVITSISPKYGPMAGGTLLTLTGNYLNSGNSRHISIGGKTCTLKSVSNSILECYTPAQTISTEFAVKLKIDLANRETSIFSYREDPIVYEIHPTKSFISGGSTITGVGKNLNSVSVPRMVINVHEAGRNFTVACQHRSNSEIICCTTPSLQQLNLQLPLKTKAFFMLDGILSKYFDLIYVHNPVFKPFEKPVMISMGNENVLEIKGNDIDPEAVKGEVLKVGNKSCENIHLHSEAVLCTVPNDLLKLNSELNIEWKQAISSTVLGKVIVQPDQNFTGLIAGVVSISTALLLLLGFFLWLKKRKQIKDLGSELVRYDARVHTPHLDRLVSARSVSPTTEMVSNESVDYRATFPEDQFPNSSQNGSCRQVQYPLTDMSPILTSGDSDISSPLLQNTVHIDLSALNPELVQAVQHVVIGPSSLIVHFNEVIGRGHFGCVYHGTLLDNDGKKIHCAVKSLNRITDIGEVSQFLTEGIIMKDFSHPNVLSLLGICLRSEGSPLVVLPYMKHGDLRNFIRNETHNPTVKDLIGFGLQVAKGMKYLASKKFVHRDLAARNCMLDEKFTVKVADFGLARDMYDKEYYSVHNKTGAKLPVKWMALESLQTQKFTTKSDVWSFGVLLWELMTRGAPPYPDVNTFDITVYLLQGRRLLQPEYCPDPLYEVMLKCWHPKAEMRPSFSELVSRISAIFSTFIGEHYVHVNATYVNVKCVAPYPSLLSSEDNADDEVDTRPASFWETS

| C-Met Agonist Activity (C50; nM): phospho-c-Met AlphaLISA, A431 cells [nM] | Binder |
| --- | --- |
| 1.22 | Peptide complex No. 19 in Table 4 (peptide SEQ ID NO: 9, GFs_c-Met_0012_4p; linker SEQ ID NO: 35) (thioether I:N-I:15 (inferred); also: homodimer: two cyclic peptides joined by linker PEG12c-K-PEG12c, peptide C-terminus on linker) peptide: {CH2CO}-[NMeF]VAVS[NMeF]DDD[Ahp(2)]PRWS[NMeC] [PEG12]-Lys-[PEG12] |
| 0.65 | Peptide complex No. 38 in Table 4 (peptide SEQ ID NO: 28, GFs_c-Met-00014303p; linker SEQ ID NO: 36) (thioether I:N-I:15 (inferred); also: homodimer of two cyclic peptides joined by linker G-K-cPEG9c-K-G, peptide C-terminus on linker) peptide: {CH2CO}-[NMeF]TRVS[NMeF]DSD[Ahp(2)]PRWS[NMeC] GK[CO(CH2CH2O)9CH2CH2CO]KG |
| 0.88 | Peptide complex No. 29 in Table 4 (peptide SEQ ID NO: 24, GFs_c-Met-00014301p; linker SEQ ID NO: 38) (thioether I:N-I:15 (inferred); also: homodimer of two cyclic peptides joined by linker G-K-cPEG17c-K-G, peptide C-terminus on linker) peptide: {CH2CO}-[NMeF]EAVS[NMeF]DPD[Ahp(2)]PRWS[NMeC] GK[CO(CH2)2(OCH2CH2)17CO]KG |
| 2.37 | Peptide complex No. 27 in Table 4 (peptide SEQ ID NO: 23, GFs_c-Met-00014298p; linker SEQ ID NO: 38) (thioether I:N-I:15 (inferred); also: homodimer of two cyclic peptides joined by linker G-K-cPEG17c-K-G, peptide C-terminus on linker) peptide: {CH2CO}-[NMeF]EAVS[NMeF]DPD[Ahp(2)]PRWA[NMeC] GK[CO(CH2)2(OCH2CH2)17CO]KG |
| 2.22 | Peptide complex No. 20 in Table 4 (peptide SEQ ID NO: 11, GFs_c-Met_0012_6p; linker SEQ ID NO: 35) (thioether I:N-I:15 (inferred); also: homodimer: two cyclic peptides joined by linker PEG12c-K-PEG12c, peptide C-terminus on linker) peptide: {CH2CO}-[NMeF]VYVS[NMeF]DPD[Ahp(2)]PRWS[NMeC] [PEG12]-Lys-[PEG12] |
| 1.24 | Peptide complex No. 28 in Table 4 (peptide SEQ ID NO: 23, GFs_c-Met-00014298p; linker SEQ ID NO: 36) (thioether I:N-I:15 (inferred); also: homodimer of two cyclic peptides joined by linker G-K-cPEG9c-K-G, peptide C-terminus on linker) peptide: {CH2CO}-[NMeF]EAVS[NMeF]DPD[Ahp(2)]PRWA[NMeC] GK[CO(CH2CH2O)9CH2CH2CO]KG |
| 2.37 | Peptide complex No. 22 in Table 4 (peptide SEQ ID NO: 17, GFs_c-Met_0012_12p; linker SEQ ID NO: 35) (thioether I:N-I:15 (inferred); also: homodimer: two cyclic peptides joined by linker PEG12c-K-PEG12c, peptide C-terminus on linker) peptide: {CH2CO}-[NMeF]VYVS[NMeF]DDD[Ahp(2)]PRWA[NMeC] [PEG12]-Lys-[PEG12] |
| 0.91 | Peptide complex No. 23 in Table 4 (peptide SEQ ID NO: 9, GFs_c-Met_0012_4p; linker SEQ ID NO: 38) (thioether I:N-I:15 (inferred); also: homodimer of two cyclic peptides joined by linker G-K-cPEG17c-K-G, peptide C-terminus on linker) peptide: {CH2CO}-[NMeF]VAVS[NMeF]DDD[Ahp(2)]PRWS[NMeC] GK[CO(CH2)2(OCH2CH2)17CO]KG |
| 1.31 | Peptide complex No. 18 in Table 4 (peptide SEQ ID NO: 6, GFs_c-Met_0012_1p; linker SEQ ID NO: 35) (thioether I:N-I:15 (inferred); also: homodimer: two cyclic peptides joined by linker PEG12c-K-PEG12c, peptide C-terminus on linker) peptide: {CH2CO}-[NMeF]TYVS[NMeF]DDD[Ahp(2)]PRWS[NMeC] [PEG12]-Lys-[PEG12] |
| 0.76 | GFs c-Met-0012-PEG12 dimer (peptide SEQ ID NO: 2, GFs_c-Met_0012p; linker SEQ ID NO: 35) (thioether I:N-I:15 (inferred); also: homodimer: two cyclic peptides joined by linker PEG12c-K-PEG12c, peptide C-terminus on linker) peptide: {CH2CO}-[NMeF]VYVS[NMeF]DDD[Ahp(2)]PRWS[NMeC] [PEG12]-Lys-[PEG12] |
| 1.27 | Peptide complex No. 24 in Table 4 (peptide SEQ ID NO: 9, GFs_c-Met_0012_4p; linker SEQ ID NO: 36) (thioether I:N-I:15 (inferred); also: homodimer of two cyclic peptides joined by linker G-K-cPEG9c-K-G, peptide C-terminus on linker) peptide: {CH2CO}-[NMeF]VAVS[NMeF]DDD[Ahp(2)]PRWS[NMeC] GK[CO(CH2CH2O)9CH2CH2CO]KG |
| 2.05 | Peptide complex No. 33 in Table 4 (peptide SEQ ID NO: 26, GFs_c-Met-00014299p; linker SEQ ID NO: 38) (thioether I:N-I:15 (inferred); also: homodimer of two cyclic peptides joined by linker G-K-cPEG17c-K-G, peptide C-terminus on linker) peptide: {CH2CO}-[NMeF]QAVS[NMeF]DPD[Ahp(2)]PRWA[NMeC] GK[CO(CH2)2(OCH2CH2)17CO]KG |
| 0.49 | Peptide complex No. 37 in Table 4 (peptide SEQ ID NO: 28, GFs_c-Met-00014303p; linker SEQ ID NO: 38) (thioether I:N-I:15 (inferred); also: homodimer of two cyclic peptides joined by linker G-K-cPEG17c-K-G, peptide C-terminus on linker) peptide: {CH2CO}-[NMeF]TRVS[NMeF]DSD[Ahp(2)]PRWS[NMeC] GK[CO(CH2)2(OCH2CH2)17CO]KG |
| 0.61 | Peptide complex No. 32 in Table 4 (peptide SEQ ID NO: 25, GFs_c-Met-00014296p; linker SEQ ID NO: 36) (thioether I:N-I:15 (inferred); also: homodimer of two cyclic peptides joined by linker G-K-cPEG9c-K-G, peptide C-terminus on linker) peptide: {CH2CO}-[NMeF]QAVS[NMeF]DSD[Ahp(2)]PRWA[NMeC] GK[CO(CH2CH2O)9CH2CH2CO]KG |
| 0.75 | Peptide complex No. 26 in Table 4 (peptide SEQ ID NO: 22, GFs_c-Met-00014295p; linker SEQ ID NO: 36) (thioether I:N-I:15 (inferred); also: homodimer of two cyclic peptides joined by linker G-K-cPEG9c-K-G, peptide C-terminus on linker) peptide: {CH2CO}-[NMeF]EAVS[NMeF]DSD[Ahp(2)]PRWA[NMeC] GK[CO(CH2CH2O)9CH2CH2CO]KG |
| 2.17 | Peptide complex No. 21 in Table 4 (peptide SEQ ID NO: 13, GFs_c-Met_0012_8p; linker SEQ ID NO: 35) (thioether I:N-I:15 (inferred); also: homodimer: two cyclic peptides joined by linker PEG12c-K-PEG12c, peptide C-terminus on linker) peptide: {CH2CO}-[NMeF]VYVS[NMeF]DDD[hLys]PRWS[NMeC] [PEG12]-Lys-[PEG12] |
| 0.68 | Peptide complex No. 31 in Table 4 (peptide SEQ ID NO: 25, GFs_c-Met-00014296p; linker SEQ ID NO: 38) (thioether I:N-I:15 (inferred); also: homodimer of two cyclic peptides joined by linker G-K-cPEG17c-K-G, peptide C-terminus on linker) peptide: {CH2CO}-[NMeF]QAVS[NMeF]DSD[Ahp(2)]PRWA[NMeC] GK[CO(CH2)2(OCH2CH2)17CO]KG |
| 0.81 | Peptide complex No. 30 in Table 4 (peptide SEQ ID NO: 24, GFs_c-Met-00014301p; linker SEQ ID NO: 36) (thioether I:N-I:15 (inferred); also: homodimer of two cyclic peptides joined by linker G-K-cPEG9c-K-G, peptide C-terminus on linker) peptide: {CH2CO}-[NMeF]EAVS[NMeF]DPD[Ahp(2)]PRWS[NMeC] GK[CO(CH2CH2O)9CH2CH2CO]KG |
| 1.44 | Peptide complex No. 39 in Table 4 (peptide SEQ ID NO: 29, GFs_c-Met-00014306p; linker SEQ ID NO: 38) (thioether I:N-I:15 (inferred); also: homodimer of two cyclic peptides joined by linker G-K-cPEG17c-K-G, peptide C-terminus on linker) peptide: {CH2CO}-[NMeF]TAVSLDSD[Ahp(2)]PRWS[NMeC] GK[CO(CH2)2(OCH2CH2)17CO]KG |
| 0.73 | Peptide complex No. 36 in Table 4 (peptide SEQ ID NO: 27, GFs_c-Met-00014302p; linker SEQ ID NO: 36) (thioether I:N-I:15 (inferred); also: homodimer of two cyclic peptides joined by linker G-K-cPEG9c-K-G, peptide C-terminus on linker) peptide: {CH2CO}-[NMeF]QAVS[NMeF]DPD[Ahp(2)]PRWS[NMeC] GK[CO(CH2CH2O)9CH2CH2CO]KG |
| 0.92 | Peptide complex No. 35 in Table 4 (peptide SEQ ID NO: 27, GFs_c-Met-00014302p; linker SEQ ID NO: 38) (thioether I:N-I:15 (inferred); also: homodimer of two cyclic peptides joined by linker G-K-cPEG17c-K-G, peptide C-terminus on linker) peptide: {CH2CO}-[NMeF]QAVS[NMeF]DPD[Ahp(2)]PRWS[NMeC] GK[CO(CH2)2(OCH2CH2)17CO]KG |
| 1.26 | Peptide complex No. 34 in Table 4 (peptide SEQ ID NO: 26, GFs_c-Met-00014299p; linker SEQ ID NO: 36) (thioether I:N-I:15 (inferred); also: homodimer of two cyclic peptides joined by linker G-K-cPEG9c-K-G, peptide C-terminus on linker) peptide: {CH2CO}-[NMeF]QAVS[NMeF]DPD[Ahp(2)]PRWA[NMeC] GK[CO(CH2CH2O)9CH2CH2CO]KG |
| 0.81 | Peptide complex No. 25 in Table 4 (peptide SEQ ID NO: 22, GFs_c-Met-00014295p; linker SEQ ID NO: 38) (thioether I:N-I:15 (inferred); also: homodimer of two cyclic peptides joined by linker G-K-cPEG17c-K-G, peptide C-terminus on linker) peptide: {CH2CO}-[NMeF]EAVS[NMeF]DSD[Ahp(2)]PRWA[NMeC] GK[CO(CH2)2(OCH2CH2)17CO]KG |
